# Results reported in patent US20080181886A1, “Polypeptides That Bind Baff And/Or April” (Genentech, Inc., priority 2004, published 2008).
# How the values were obtained:
# APRIL [1] = target: T1, APRIL (Mus musculus, UniProt Q9D777); experiment: NNS phage library of TACI CRD2 (positions 78, 79, 84, 92), APRIL selection; type: binding, murine; details: amino acid at position F78; after 3 rounds of sorting; large F′ = favorable
# T1 construct: made in house
# T1 sequence (Q9D777 105-241): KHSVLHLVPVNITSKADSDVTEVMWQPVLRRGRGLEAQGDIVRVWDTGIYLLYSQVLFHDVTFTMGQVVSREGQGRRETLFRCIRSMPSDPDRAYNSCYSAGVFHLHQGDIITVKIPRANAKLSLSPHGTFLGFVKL
# Method: (§1) NNS library construction and sorting.
# (§2) This new phage library was subjected to sorting against either BAFF, APRIL or the display target antibody. After 3 rounds of sorting, approximately 48 clones were picked from each selection and the DNA sequences of the phage clones were determined. […] The normalized F′ value corrects for display bias and is calculated as the percent occurrence to percent degeneracy ratio for ligand selection divided by the percent occurrence to percent degeneracy ratio for display efficiency. Percent occurrence is calculated by dividing the number of times a particular amino acid appeared at a particular position by the total number of amino acids sequenced at that position followed by multiplying by 100. Percent degeneracy is calculated by dividing the degeneracy in code for a particular amino acid divided by the total degeneracy possible at that position followed by multiplying by 100 (e.g., if only A, G and I were selected, total degeneracy possible would be 5).
# BAFF [2] = target: T2, BAFF (Homo sapiens, UniProt Q9Y275); experiment: NNS phage library of TACI CRD2 (positions 78, 79, 84, 92), BAFF selection; type: binding; details: amino acid at position F78; after 3 rounds of sorting; large F′ = favorable
# T2 construct: made in house
# T2 sequence (Q9Y275 82-285 limits assumed): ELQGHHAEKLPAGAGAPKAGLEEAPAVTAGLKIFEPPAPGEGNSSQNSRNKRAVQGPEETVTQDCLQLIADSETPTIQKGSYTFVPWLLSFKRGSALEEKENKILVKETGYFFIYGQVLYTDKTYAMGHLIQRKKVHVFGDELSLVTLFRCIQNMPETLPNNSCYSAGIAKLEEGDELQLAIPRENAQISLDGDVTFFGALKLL
# Method: as §1, §2
# BAFF [3] = target: T2, BAFF; experiment: Competitive surface plasmon resonance, BAFF binding to immobilized BCMA-Fc; details: competition with immobilized BCMA-Fc
# Excerpt: Surface plasmon resonance (SPR) measurements on a BIAcore 3000 instrument (Pharmacia Biosensor) were used to measure binding affinities of receptors to immobilized APRIL and BAFF by competition binding. […] In these experiments, receptors in solution competed for binding of ligand in solution at room temperature with immobilized BCMA-Fc. BCMA-Fc was coupled to flow cell 2 of a CM4 sensor chip, using the amine coupling protocol supplied by the manufacturer, at a high density (4500 resonance units) so that the initial rate of binding was linearly dependent on the concentration of free ligand. In all experiments flow cell 1 was ethanolamine-blocked and used as the reference cell. Washing with 10 mM HCl regenerated flow cells between sample injections. In order to determine the ligand concentration necessary to obtain the optimal for competition experiments, a preliminary binding study was performed for each ligand where two-fold dilutions of the ligand ranging from 400 nM to 6.25 nM were injected over the BCMA-Fc surface. The concentration of ligand that provided a slope of about 1 for the initial on-rate of the observed sensorgrams was selected as the fixed concentration to be used in the competition experiments. In all experiments where BAFE was the ligand, the buffer used was composed of 10 mM HEPES, pH 7.2, 150 mM NaCl, and 0.005% Tween-20. In all experiments where TRX-APRIL was the ligand selected, the buffer was composed of 20 mM Tris-HCl, pH 8.0, 200 mM NaCl, and 0.005% Tween-20. […] Samples were then passed over the BCMA-Fc-coupled surface. A linear fit of the initial on-rate of the observed sensorgrams was used to calculate the binding rate (V). The IC50 values were calculated using a four-parameter curve fit (y=((m1−m4)/(1+(m0/m3)̂m2))+m4) of the initial binding rates for the receptor/control (Vi/Vo) as a function of receptor concentration.
# APRIL [4] = target: T1, APRIL; experiment: Competitive surface plasmon resonance, APRIL binding to immobilized BCMA-Fc; parameters: species or system murine; details: competition with immobilized BCMA-Fc
# Excerpt: Surface plasmon resonance (SPR) measurements on a BIAcore 3000 instrument (Pharmacia Biosensor) were used to measure binding affinities of receptors to immobilized APRIL and BAFF by competition binding. […] In these experiments, receptors in solution competed for binding of ligand in solution at room temperature with immobilized BCMA-Fc. BCMA-Fc was coupled to flow cell 2 of a CM4 sensor chip, using the amine coupling protocol supplied by the manufacturer, at a high density (4500 resonance units) so that the initial rate of binding was linearly dependent on the concentration of free ligand. In all experiments flow cell 1 was ethanolamine-blocked and used as the reference cell. Washing with 10 mM HCl regenerated flow cells between sample injections. In order to determine the ligand concentration necessary to obtain the optimal for competition experiments, a preliminary binding study was performed for each ligand where two-fold dilutions of the ligand ranging from 400 nM to 6.25 nM were injected over the BCMA-Fc surface. […] The IC50 values were calculated using a four-parameter curve fit (y=((m1−m4)/(1+(m0/m3)̂m2))+m4) of the initial binding rates for the receptor/control (Vi/Vo) as a function of receptor concentration.
# BAFF [5] = target: T2, BAFF; experiment: Competitive ELISA, BAFF; type: binding; details: data not shown
# APRIL [6] = target: T1, APRIL; experiment: Competitive ELISA, APRIL; type: binding, murine; details: data not shown
substance,measurement,setting,value
"F78F: phage-displayed TACI CRD2, wild-type F retained at position 78 (NNS library) (SLSCRKEQGKFYDHLLRDCISCASICGQHPKQCAYFCENKLR; CRD2 phage-displayed; UniProt O14836 68-109, looked up, fragment)",F′ APRIL F78,APRIL [1],2
same,F′ BAFF F78,BAFF [2],3
"TACI_d1: first CRD of TACI (residues 32-67), expressed in E. coli (RSCPEEQYWDPLLGTCMSCKTICNHQSQRTCAAFCR)","IC50 for BAFF, in words",BAFF [3],in the micromolar range
same,"affinity for BAFF, comparison in words",BAFF [3],an interaction was observed
same,"IC50 for APRIL, in words",APRIL [4],in the micromolar range
"TACI_d2: second cysteine-rich domain (CRD2, residues 68-109) of TACI, with four additional residues (GSPW) at the N-terminus (GSPWSLSCRKEQGKFYDHLLRDCISCASICGQHPKQCAYFCENKLR)","binding to BAFF, in words",BAFF [5],sufficient for high-affinity binding
same,"binding to APRIL, in words",APRIL [6],sufficient for high-affinity binding
TACI CRD1 Loop Swap: human TACI CRD1 (R32-R67) with residues NHQSQRT substituted by GQHPKQ of hTACI CRD2 (RSCPEEQYWDPLLGTCMSCKTICGQHPKQCAAFCR),"affinity for BAFF, comparison in words",BAFF [3],increased TACI CRD1 affinity
same,"affinity for APRIL, comparison in words",APRIL [4],increased TACI CRD1 affinity
